Measurements reported in patent US20230257479A1 (Genmab, published 2023).

Legend:
[1] = target: T1, full length human 5T4 (SEQ ID NO: 1) on cells (human, UniProt Q13641 32-420); experiment: flow cytometry, HEK-293 cells transfected with human 5T4, PE secondary [II)E]
T1 construct: Uniprot Q13641; residues 1-31 are the signal peptide; Used both for transfected HEK-293 cells and for 5T4-expressing human tumor cell lines
T1 sequence: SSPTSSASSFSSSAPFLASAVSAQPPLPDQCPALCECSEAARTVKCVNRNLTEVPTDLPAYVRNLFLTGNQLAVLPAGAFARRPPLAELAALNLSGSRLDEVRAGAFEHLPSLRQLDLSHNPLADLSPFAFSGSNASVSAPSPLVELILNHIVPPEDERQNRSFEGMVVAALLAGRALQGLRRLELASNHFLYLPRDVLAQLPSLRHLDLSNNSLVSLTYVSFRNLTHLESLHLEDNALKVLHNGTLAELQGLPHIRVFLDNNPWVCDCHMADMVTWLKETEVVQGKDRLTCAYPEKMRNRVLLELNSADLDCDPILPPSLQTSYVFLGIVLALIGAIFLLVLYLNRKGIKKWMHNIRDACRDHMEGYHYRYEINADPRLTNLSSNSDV

[2] = target: T2, full length cynomolgus monkey 5T4 on transfected HEK-293 cells (cynomolgus monkey, UniProt Q4R8Y9 35-420); experiment: flow cytometry, HEK-293 cells transfected with cynomolgus monkey 5T4, PE secondary [II)E]
T2 construct: Uniprot Q4R8Y9; residues 1-34 are the signal peptide; also called cynomolgus 5T4
T2 sequence: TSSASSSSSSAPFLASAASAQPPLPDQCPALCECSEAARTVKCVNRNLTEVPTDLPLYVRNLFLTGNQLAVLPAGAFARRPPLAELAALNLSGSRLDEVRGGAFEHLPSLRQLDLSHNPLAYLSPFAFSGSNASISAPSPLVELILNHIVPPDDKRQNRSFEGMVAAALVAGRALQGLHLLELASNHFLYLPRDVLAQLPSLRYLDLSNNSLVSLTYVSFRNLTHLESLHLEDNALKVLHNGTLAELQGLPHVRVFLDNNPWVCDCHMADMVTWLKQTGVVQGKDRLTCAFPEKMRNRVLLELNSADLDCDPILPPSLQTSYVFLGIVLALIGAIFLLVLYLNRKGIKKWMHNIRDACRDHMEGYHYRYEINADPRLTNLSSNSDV

[3] = target: T3, human 5T4ECDHis (mature protein of SEQ ID NO: 99) (human, UniProt Q13641 32-355); experiment: BLI cross-block; competitor (immobilised): IgG1-5T4-H8-FEAR
T3 construct: ECD of human 5T4 (aa 1-355 of Uniprot Q13641) with C-terminal His tag; residues 1-31 are the signal peptide; also called ECD of human 5T4 with a C-terminal His tag
T3 sequence: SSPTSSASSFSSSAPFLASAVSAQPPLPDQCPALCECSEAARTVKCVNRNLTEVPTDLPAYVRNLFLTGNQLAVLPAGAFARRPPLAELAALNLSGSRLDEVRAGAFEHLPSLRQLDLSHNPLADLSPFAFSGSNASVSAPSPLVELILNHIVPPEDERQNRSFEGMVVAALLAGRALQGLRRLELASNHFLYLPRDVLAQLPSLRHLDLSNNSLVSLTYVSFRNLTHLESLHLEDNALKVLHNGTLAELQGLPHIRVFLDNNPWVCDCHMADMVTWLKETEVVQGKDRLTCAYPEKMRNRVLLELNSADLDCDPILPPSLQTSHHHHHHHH

[4] = target: T3, human 5T4ECDHis (mature protein of SEQ …); experiment: BLI cross-block; competitor (immobilised): IgG1-5T4-059-FEAR
[5] = target: T3, human 5T4ECDHis (mature protein of SEQ …); experiment: BLI cross-block; competitor (immobilised): IgG1-5T4-076-FEAR
[6] = target: T3, human 5T4ECDHis (mature protein of SEQ …); experiment: BLI cross-block; competitor (immobilised): IgG1-5T4-085-FEAR
[7] = target: T3, human 5T4ECDHis (mature protein of SEQ …); experiment: BLI cross-block; competitor (immobilised): IgG1-5T4-106-FEAR
[8] = target: T3, human 5T4ECDHis (mature protein of SEQ …); experiment: BLI cross-block; competitor (immobilised): IgG1-5T4-127-FEAR
[9] = target: T3, human 5T4ECDHis (mature protein of SEQ …); experiment: BLI cross-block; competitor (immobilised): IgG1-5T4-207-FEAR
[10] = target: T3, human 5T4ECDHis (mature protein of SEQ …); experiment: BLI cross-block; competitor (immobilised): IgG1-5T4-226-FEAR
[11] = target: T3, human 5T4ECDHis (mature protein of SEQ …); experiment: BLI cross-block; competitor (immobilised): IgG1-5T4-A1-F405L
[12] = target: T3, human 5T4ECDHis (mature protein of SEQ …); experiment: BLI cross-block; competitor (immobilised): IgG1-5T4-A3-F405L
[13] = target: T3, human 5T4ECDHis (mature protein of SEQ …); experiment: BLI, antibody on anti-human IgG Fc Capture biosensor, antigen in solution
[14] = target: T1, full length human 5T4 (SEQ ID NO: 1) on …; experiment: flow cytometry, HEK-293 cells transfected with human 5T4, FITC secondary [I)D]
[15] = target: T2, full length cynomolgus monkey 5T4 on …; experiment: flow cytometry, HEK-293 cells transfected with cynomolgus monkey 5T4, PE secondary [II)G]
[16] = target: T1, full length human 5T4 (SEQ ID NO: 1) on …; experiment: flow cytometry, HeLa cells, PE secondary [II)H]
[17] = target: T2, full length cynomolgus monkey 5T4 on …; experiment: flow cytometry, HEK-293 cells transfected with cynomolgus monkey 5T4, PE secondary [II)I]

Row | Binder | corrected association response [3] [nm] | corrected association response [4] [nm] | corrected association response [5] [nm] | corrected association response [6] [nm] | corrected association response [7] [nm] | corrected association response [8] [nm] | corrected association response [9] [nm] | corrected association response [10] [nm] | corrected association response [11] [nm] | corrected association response [12] [nm] | also measured
1 | bsIgG1-huCD3-H101G-FEALx5T4-076-FEAR (bispecific antibody, Fab-arm exchange product) heavy: not shown light: not shown VH: QVQLVQSGAEVKKPGASVKVSCKASGYTFTSYGISWVRQAPGQGLEWMGWISAYNGNTNYAQKLQGRVTMTTDTSTRTAYMELRSLRSDDTAVYYCARDPGYFDWLYGDYWGQGTLVTVSS VL: AIQLTQSPSSLSASVGDRVTITCRASQGISSALAWYQQKPGKAPKLLIYDASSLESGVPSRFSGSGSGTDFTLTISSLQPEDFATYYCQQFNSYPRTFGQGTKVEIK | – | – | – | – | – | – | – | – | – | – | binding result [1]: binds; EC50 (read off the curve) [2]: ~0.4 µg/mL
2 | IgG1-5T4-076-FEAR (antibody, V domains shown, Monospecific, bivalent human IgG1 kappa with L234F, L235E, D265A, K409R (FEAR)) VH: QVQLVQSGAEVKKPGASVKVSCKASGYTFTSYGISWVRQAPGQGLEWMGWISAYNGNTNYAQKLQGRVTMTTDTSTRTAYMELRSLRSDDTAVYYCARDPGYFDWLYGDYWGQGTLVTVSS VL: AIQLTQSPSSLSASVGDRVTITCRASQGISSALAWYQQKPGKAPKLLIYDASSLESGVPSRFSGSGSGTDFTLTISSLQPEDFATYYCQQFNSYPRTFGQGTKVEIK | -0.02 | 0 | -0.01 | -0.01 | -0.03 | -0.02 | 1.22 | 1.47 | 0.36 | 0 | EC50 (read off the curve) [1]: ~0.3 µg/mL; EC50 (read off the curve) [2]: ~0.008 µg/mL
3 | IgG1-5T4-H8-FEAR (antibody, V domains shown, Based on 5T4 antibody H8 from Wyeth (WO 2007/106744); IgG1 with L234F, L235E, D265A, K409R (FEAR); also called IgG1-5T4-HS-FEAR; IgG1-5T4-H8-FEAR-FITC) VH: EVQLQQSGPDLVKPGASVKISCKASGYSFTGYYMHWVKQSHGKSLEWIGRINPNNGVTLYNQKFKDKAILTVDKSSTTAYMELRSLTSEDSAVYYCARSTMITNYVMDYWGQVTSVTVSS VL: SIVMTQTPTFLLVSAGDRVTITCKASQSVSNDVAWYQQKPGQSPTLLISYTSSRYAGVPDRFIGSGYGTDFTFTISTLQAEDLAVYFCQQDYNSPPTFGGGTKLEIK | 0 | 0.01 | 0 | -0.01 | -0.02 | -0.02 | -0.01 | -0.01 | 0.89 | 0.5 | Kd [13]: 1.3 nM; koff [13]: 0.00029 s⁻¹; kon [13]: 220000 M⁻¹ s⁻¹; EC50 (read off the curve) [14]: ~0.1 µg/mL
4 | IgG1-5T4-A1-F405L (antibody, V domains shown, Variable region of A1 of WO2007106744 in a human IgG1 backbone with F405L; also called surrogate A1 antibody) VH: QIQLVQSGPELKKPGETVKISCKASGYTFTNFGMNWVKQGPGEGLKWMGWINTNTGEPRYAEEFKGRFAFSLETTASTAYLQINNLKNEDTATYFCARDWDGAYFFDYWGQGTTLTVSS VL: SIVMTQTPKFLLVSAGDRVTITCKASQSVSNDVAWYQQKPGQSPKLLINFATNRYTGVPNRFTGSGYGTDFTFTISTVQAEDLALYFCQQDYSSPWTFGGGTKLEIK | 0.64 | 0.96 | 0.04 | 0.07 | 0.79 | 0.15 | 1.29 | 1.56 | -0.01 | 0.69 | –
5 | bsIgG1-huCD3-H101G-FEALx5T4-127-FEAR (bispecific antibody, Fab-arm exchange product) heavy: not shown light: not shown VH: EVQLLESRGGLVQPGGSLRLSCAASGFTFSSYAMSWVRQAPGKGLEWVSTISGSGGSTYYADSVKGRFTISRDNSKKTLYLQMNSLRAEDTAVYYCAKDWGSGSYPAEYFQHWGQGTLVTVSS VL: EIVLTQSPATLSLSPGERATLSCRASQSVSSYLAWYQQKPGQAPRLLIYDASNRATGIPARFSGSGSGTDFTLTISSLEPEDFAVYYCQQRSNWLMYTFGQGTKLEIK | – | – | – | – | – | – | – | – | – | – | EC50 (read off the curve) [15]: ~0.1 µg/mL
6 | bsIgG1-huCD3-H101G-FEALx5T4-A3-FEAR (bispecific antibody, Fab-arm exchange product) heavy: not shown light: not shown VH: EVQLVESGGGLVQPKGSLKLSCAASGFTFNTYAMNWVRQAPGKGLEWVARIRSKSNNYATYYADSVKDRFTISRDDSQSMLYLQMNNLKTEDTAMYYCVRQWDYDVRAMNYWGQGTSVTVSS VL: DIVMTQSHIFMSTSVGDRVSITCKASQDVDTAVAWYQQKPGQSPKLLIYWASTRLTGVPDRFTGSGSGTDFTLTISNVQSEDLADYFCQQYSSYPYTFGGGTKLEIK | – | – | – | – | – | – | – | – | – | – | binding result [16]: binds; binding result [17]: binds
7 | IgG1-5T4-A3-FEAR (antibody, V domains shown, Based on A3 from Wyeth; IgG1 with L234F, L235E, D265A, K409R (FEAR)) VH: EVQLVESGGGLVQPKGSLKLSCAASGFTFNTYAMNWVRQAPGKGLEWVARIRSKSNNYATYYADSVKDRFTISRDDSQSMLYLQMNNLKTEDTAMYYCVRQWDYDVRAMNYWGQGTSVTVSS VL: DIVMTQSHIFMSTSVGDRVSITCKASQDVDTAVAWYQQKPGQSPKLLIYWASTRLTGVPDRFTGSGSGTDFTLTISNVQSEDLADYFCQQYSSYPYTFGGGTKLEIK | – | – | – | – | – | – | – | – | – | – | binding result [16]: binds; EC50 (read off the curve) [17]: ~0.1 µg/mL
8 | IgG1-5T4-A3-F405L (antibody, V domains shown, Variable region of A3 of WO2007106744 in a human IgG1 backbone with F405L; also called surrogate A3 antibody) VH: EVQLVESGGGLVQPKGSLKLSCAASGFTFNTYAMNWVRQAPGKGLEWVARIRSKSNNYATYYADSVKDRFTISRDDSQSMLYLQMNNLKTEDTAMYYCVRQWDYDVRAMNYWGQGTSVTVSS VL: DIVMTQSHIFMSTSVGDRVSITCKASQDVDTAVAWYQQKPGQSPKLLIYWASTRLTGVPDRFTGSGSGTDFTLTISNVQSEDLADYFCQQYSSYPYTFGGGTKLEIK | 0.49 | – | 0 | -0.01 | 0.56 | -0.01 | – | – | 0.76 | 0.01 | –
